These are literature values, as cited in PMC1087504.

The data set addresses 3 beta-hydroxysteroid dehydrogenase (Bos taurus) (UniProt P14893).
Chain of UniProt P14893 (P14893 whole entry): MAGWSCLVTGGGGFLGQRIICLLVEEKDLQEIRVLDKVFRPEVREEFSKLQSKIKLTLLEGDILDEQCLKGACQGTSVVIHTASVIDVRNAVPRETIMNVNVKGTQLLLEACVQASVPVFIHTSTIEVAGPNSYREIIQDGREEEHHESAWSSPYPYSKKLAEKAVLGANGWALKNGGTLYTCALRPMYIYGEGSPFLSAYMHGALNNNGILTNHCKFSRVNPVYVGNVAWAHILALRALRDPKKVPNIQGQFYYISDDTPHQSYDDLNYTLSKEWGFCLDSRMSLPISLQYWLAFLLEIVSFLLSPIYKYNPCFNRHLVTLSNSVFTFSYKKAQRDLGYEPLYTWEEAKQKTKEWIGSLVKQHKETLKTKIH

Regarding P450scc (from UniProt P00189), the Kd is 0.12 µM.

What is called Kd is a measure of binding affinity in units of concentration.
